Data reported in US20240228660A1 (IP2IPO INNOVATIONS, published 2024).
Residue numbers refer to the chain shown, from its start.

B1: 3-H9_H2_L0 (antibody, human IgG1, kappa, V domains shown)
VH: QQLVESGGGVVQPGRSLRLSCAASGFSLSNYDMSWVRQAPGKGLEWIGSIHAIGITYYANWAEGRFTISRDKNTVYLQMNSLRAEDTATYFCARGLVDLNMWGQGTLVTVSS
VL: DIQMTQSPSSLSASVGDRVTITCQSSQSVYSNNLLSWYQQKPGKAPKLLIYDASTLESGVPSRFSGSGSGTDFTLTISSLQPEDFATYYCQGSYYSSGWYNTFGGGTKVEIKT
notes: humanised, human IgG1 kappa
B2: 3-H9_H1_L0 (antibody, human IgG1, kappa, V domains shown)
VH: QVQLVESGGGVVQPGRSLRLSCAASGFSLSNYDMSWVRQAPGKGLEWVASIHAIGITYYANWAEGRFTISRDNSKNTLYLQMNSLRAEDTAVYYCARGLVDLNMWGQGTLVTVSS
VL: B1 VL
notes: humanised, human IgG1 kappa
B3: 3-H9_H0_L0 (antibody, human IgG1, kappa, V domains shown)
VH: QVQLVESGGGVVQPGRSLRLSCAASGFTFSNYDMSWVRQAPGKGLEWVASIHAIGITYYANWAEGRFTISRDNSKNTLYLQMNSLRAEDTAVYYCARGLVDLNMWGQGTLVTVSS
VL: B1 VL
notes: humanised, human IgG1 kappa
B4: 4-H3_H1_L0 (antibody, human IgG1, kappa)
heavy: not shown
light: DIQMTQSPSSLSASVGDRVTITCLASEDIASGISWYQQKPGKAPKLLIYGASNLESGVPSRFSGSGSGTDFTLTISSLQPEDFATYYCLGGYSFSSNGLTFGGGTKVEIKTVAAPSVFIFPPSDEQLKSGTASVVCLLNNFYPREAKVQWKVDNALQSGNSQESVTEQDSKDSTYSLSSTLTLSKADYEKHKVYACEVTHQGLSSPVTKSFNRGEC
notes: humanised, human IgG1 kappa
B5: 4-H3_H2_L1 (antibody, human IgG1, kappa)
heavy: not shown
light: B4 light with I2Y, F71Y
notes: humanised, human IgG1 kappa
B6: 4-H3_H4_L0 (antibody, human IgG1, kappa, V domains shown)
VH: QVQLVESGGGVVQPGRSLRLSCAASGIDLTSNAMNWVRQAPGKGLEWVAGIYGHDTSYYAAWAKGRFTISRDNSKNTLYLQMNSLRAEDTATYFCARGFIYFDIWGQGTLVTVSS
VL: DIQMTQSPSSLSASVGDRVTITCLASEDIASGISWYQQKPGKAPKLLIYGASNLESGVPSRFSGSGSGTDFTLTISSLQPEDFATYYCLGGYSFSSNGLTFGGGTKVEIKT
notes: humanised, human IgG1 kappa
B7: 4-H3_H0_L1 rep (antibody, human IgG1, kappa, V domains shown)
VH: B6 VH with I27F, D28T, L29F, T30S, T92V, F94Y
VL: B6 VL with I2Y, F71Y
notes: humanised, human IgG1 kappa
B8: 4-H3_H2_L0 (antibody, human IgG1, kappa)
heavy: not shown
light: B4 light
notes: humanised, human IgG1 kappa
B9: 4-H3_H1_L1 (antibody, human IgG1, kappa)
heavy: not shown
light: B4 light with I2Y, F71Y
notes: humanised, human IgG1 kappa
B10: 4-H3_H3_L0 (antibody, human IgG1, kappa, V domains shown)
VH: B6 VH with V48I, A49G, L78V, T92V, F94Y
VL: B6 VL
notes: humanised, human IgG1 kappa
B11: 4-H3_H3_L1 (antibody, human IgG1, kappa, V domains shown)
VH: B6 VH with V48I, A49G, L78V, T92V, F94Y
VL: B6 VL with I2Y, F71Y
notes: humanised, human IgG1 kappa
B12: 4-H3_H4_L1 (antibody, human IgG1, kappa, V domains shown)
VH: B6 VH
VL: B6 VL with I2Y, F71Y
notes: humanised, human IgG1 kappa
B13: 1-D5_H2_L1 (antibody, human IgG1, kappa, V domains shown)
VH: QQQLVESGGGVVQPGRSLRLSCAASGFSLNNYIMGWVRQAPGKGLEYIGIISTGGSTYYASWAKGRFTISRDSNTMYLQMNSLRAEDTATYFCARGGSSAGAGFNIWGQGTLVTVSS
VL: DIQMTQSPSSLSASVGDRVTITCQASQSINSGLAWYQQKPGKAPKRLIYKASTLASGVPSRFSGSGSGTDFTLTISSLQPEDFATYYCQSYHYISANGATFGGGTKVEIKT
notes: humanised, human IgG1 kappa
B14: 1-D5_H1_L1 (antibody, human IgG1, kappa, V domains shown)
VH: QVQLVESGGGVVQPGRSLRLSCAASGFSLNNYIMGWVRQAPGKGLEWVAIISTGGSTYYASWAKGRFTISRDNSKNTLYLQMNSLRAEDTAVYYCARGGSSAGAGFNIWGQGTLVTVSS
VL: B13 VL
notes: humanised, human IgG1 kappa
B15: 1-D5_H2_L0 (antibody, human IgG1, kappa, V domains shown)
VH: B13 VH
VL: B13 VL with R46L
notes: humanised, human IgG1 kappa
B16: 1-D5_H0_L0 (antibody, human IgG1, kappa, V domains shown)
VH: B14 VH with S28T, L29F, N30S
VL: B13 VL with R46L
notes: humanised, human IgG1 kappa
B17: 1-D5_H0_L1 (antibody, human IgG1, kappa, V domains shown)
VH: B14 VH with S28T, L29F, N30S
VL: B13 VL
notes: humanised, human IgG1 kappa
B18: 1-D5_H1_L0 (antibody, human IgG1, kappa, V domains shown)
VH: B14 VH
VL: B13 VL with R46L
notes: humanised, human IgG1 kappa
B19: 1-G5_H2_L1 (antibody, human IgG1, kappa)
heavy: not shown
light: DPQMTQSPSSLSASVGDRVTITCQASQSVYNNNYLSWYQQKPGKAPKLLIYDASTLASGVPSRFSGSGSGTDFTLTISSLQPEDFATYYCQGSYYSGGWDTAFGGGTKVEIKTVAAPSVFIFPPSDEQLKSGTASVVCLLNNFYPREAKVQWKVDNALQSGNSQESVTEQDSKDSTYSLSSTLTLSKADYEKHKVYACEVTHQGLSSPVTKSFNRGEC
notes: humanised, human IgG1 kappa
B20: 1-G5_H1_L1 (antibody, human IgG1, kappa)
heavy: not shown
light: B19 light
notes: humanised, human IgG1 kappa
B21: 1-G5_H0_L0 (antibody, human IgG1, kappa)
heavy: not shown
light: B19 light with P2I
notes: humanised, human IgG1 kappa
B22: 1-G5_H0_L1 (antibody, human IgG1, kappa)
heavy: not shown
light: B19 light
notes: humanised, human IgG1 kappa
B23: 1-G5_H2_L0 (antibody, human IgG1, kappa)
heavy: not shown
light: B19 light with P2I
notes: humanised, human IgG1 kappa
B24: 1-A2 (antibody, human IgG1, V domains shown)
VH: QSVEESGGRLVPPGTPLTLTCTVSGIDLTSNAMNWVRQAPGKGLEWIGGIYGHDTSYYAAWAKGRFTISRTSTTVDLKMTRPTTDDTATYFCARGFIYFDIWGTGTLVTISS
VL: AIEMTQTPPSLSASVGETVRIRCLASEDIYSGISWYQQKPGKPPTLLIYGASNLESGVPPRFSGSGSGTDYTLTIGGVQAEDAATYYCLGGHSHSTTDLTFGAGTKVEIK
notes: Rabbit-derived variable domains cloned into a human IgG1 expression vector and expressed as monoclonal antibody; also called clone 1-A2; antibody 1-A2
B25: 4-H3 (antibody, human IgG1, V domains shown)
VH: B24 VH with V3L
VL: B24 VL with I2Y, E3D, Y30A, H92Y, H94F, T96S, T97N, D98G
notes: Rabbit-derived variable domains expressed as human IgG1; also called clone 4-H3

Target: T1, human full-length VWF (human, UniProt P04275 764-2813)
Experiment: SPR Biacore T200, antibody captured on Protein A chip, full-length VWF as analyte, single-cycle kinetics
Experimental: (§1) Antibodies were captured on Protein A sensor chip. The system was purged using running buffer (10 mM HEPES pH 7.4, 300 mM NaCl, 3 mM EDTA, 0.05% P20) and a series S Protein A chip was docked in the Biacore T200. The surface was conditioned with 10 mM glycine-HCl pH 1.5 regeneration solution (3 injections). Each antibody was diluted to ˜0.8 μg/ml in running buffer to capture ˜350 RU on flow cells 2, 3 and 4 (flow cell 1 used as in-line reference cell). Single-cycle kinetic analysis of human full-length VWF binding to antibodies was performed using the following parameters:

| Binder | Kd [pM] |
| --- | --- |
| B1 | < 1000 |
| B2 | < 1000 |
| B3 | < 1000 |
| B4 | < 1000 |
| B5 | < 1000 |
| B6 | < 1000 |
| B7 | < 1000 |
| B8 | < 1000 |
| B9 | < 1000 |
| B10 | < 1000 |
| B11 | < 1000 |
| B12 | < 1000 |
| B13 | < 1000 |
| B14 | < 1000 |
| B15 | < 1000 |
| B16 | < 1000 |
| B17 | < 1000 |
| B18 | < 1000 |
| B19 | < 1000 |
| B20 | < 1000 |
| B21 | < 1000 |
| B22 | < 1000 |
| B23 | < 1000 |

Target: T1, human full-length VWF
Experiment: SPR, Biacore T200, antibody captured on Protein A, full-length VWF as analyte, single-cycle kinetics

| Binder | Kd [pM] |
| --- | --- |
| B24 | 8.02 |
| B25 | 15.3 |

Target: T1, human full-length VWF
Experiment: as above
Remark: another data set of the same source
Experimental: as §1

| Binder | Kd [pM] | koff [s⁻¹] | kon [M⁻¹ s⁻¹] |
| --- | --- | --- | --- |
| B4 | 18.7 | 2.49e-06 | 134000 |
| B5 | 4.53 | 1.36e-07 | 29900 |
| B6 | 19.3 | 5.24e-07 | 27100 |
| B7 | 4.12 | 1.52e-07 | 36900 |
| B8 | 27.3 | 9.13e-07 | 33500 |
| B9 | 13.8 | 4.27e-07 | 31000 |
| B10 | 1.92 | 1.45e-07 | 75600 |
| B11 | 1.49 | 1.72e-07 | 115000 |
| B12 | 0.14 | 6.25e-09 | 44500 |
| B13 | 38 | 1.13e-05 | 298000 |
| B14 | 0.0946 | 6.72e-09 | 71000 |
| B15 | 7.66 | 1.06e-06 | 138000 |
| B16 | 0.15 | 1.13e-08 | 75200 |
| B17 | 1.77 | 2.99e-07 | 169000 |
| B18 | 1.6 | 1.25e-07 | 77900 |

Target: T1, human full-length VWF
Experiment: as above
Remark: another data set of the same source
Experimental: as §1

| Binder | Kd [pM] | koff [s⁻¹] | kon [M⁻¹ s⁻¹] |
| --- | --- | --- | --- |
| B1 | 11.2 | 8.74e-07 | 78100 |
| B2 | 15.6 | 2.84e-07 | 18200 |
| B3 | 1.05 | 8.46e-08 | 80900 |
| B19 | 0.174 | 2.25e-08 | 129000 |
| B20 | 14.8 | 6.03e-07 | 40700 |
| B21 | 1.1 | 9.05e-08 | 82400 |
| B22 | 12.9 | 1.02e-06 | 79000 |
| B23 | 13 | 3.9e-07 | 29900 |

Target: T2, human native VWF (human, UniProt P04275 764-2813)
T2 construct: Multimeric glycoprotein; also called native VWF protein; native VWF (305 kDa)
Experiment: SPR, Biacore 8K, antibody captured on Protein A, native VWF as analyte (4.4-50 nM), single-cycle kinetics, 1:1 fit; replicate 1
Experimental: (§2) The surface plasmon resonance (SPR) experiments were performed using a Biacore 8K (Cytiva) equipped with a research grade Protein A series S sensor chip. […] Flow cell 1 was left blank to serve as a reference surface. […] The complex was allowed to associate and dissociate for 120 seconds and 7200 seconds respectively. The surfaces were regenerated with 30 see injections of 10 mM glycine-HCl pH1.5.
(§3) Data were collected at a rate of 10 Hz. The data were fit to a simple 1:1 interaction model using the global data analysis option available within the Biacore Insight Evaluation software version 3.0.12.15655.

| Binder | Kd [pM] |
| --- | --- |
| B24 | 164 |
| B25 | 123 |

Target: T2, human native VWF
Experiment: SPR, Biacore 8K, antibody captured on Protein A, native VWF as analyte (4.4-50 nM), single-cycle kinetics, 1:1 fit; replicate 2
Experimental: as §2, §3

| Binder | Kd [pM] |
| --- | --- |
| B24 | 527 |
| B25 | 154 |
